Measured values taken from patent US20130336893A1 (Sanofi, published 2013).
*1 amine or outer side, *2 acyl side, *3 side chain or, on linkers, in order; H or OH if unused. Where no end group is shown, it is not given here. Side-chain parts run from the residue outwards. [ ]: non-standard residue; d: D form. The star is where a group is joined. γGlu = O=C(O)[C@H](CCC(=O)[*:2])N[*:1]; Palmitoyl = CCCCCCCCCCCCCCCC(=O)*; Aib = CC(C)(N)C(=O)O

How the values were obtained:
human glucagon receptor = human glucagon receptor (human, UniProt P47871 26-477); assay: cell-based or functional assay
Chain of human glucagon receptor (P47871 26-477): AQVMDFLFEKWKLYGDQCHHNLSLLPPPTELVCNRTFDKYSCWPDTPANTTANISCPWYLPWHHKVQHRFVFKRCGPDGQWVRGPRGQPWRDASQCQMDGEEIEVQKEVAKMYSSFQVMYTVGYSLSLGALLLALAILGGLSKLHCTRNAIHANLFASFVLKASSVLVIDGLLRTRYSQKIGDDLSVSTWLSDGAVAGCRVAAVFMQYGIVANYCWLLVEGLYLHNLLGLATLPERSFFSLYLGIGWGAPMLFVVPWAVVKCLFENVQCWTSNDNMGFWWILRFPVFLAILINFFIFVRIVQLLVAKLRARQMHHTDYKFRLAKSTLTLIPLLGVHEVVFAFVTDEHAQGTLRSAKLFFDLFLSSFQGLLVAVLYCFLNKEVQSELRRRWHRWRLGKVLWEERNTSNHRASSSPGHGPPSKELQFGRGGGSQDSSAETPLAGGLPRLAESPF

human GLP-1 receptor = human GLP-1 receptor (human, UniProt P43220 24-463); assay: cell-based or functional assay

| Binder | EC50 hGlucagonR (cAMP formation) (human glucagon receptor) | EC50 hGLP-1R (cAMP formation) (human GLP-1 receptor) |
| --- | --- | --- |
| H[dS]QGTFTSDLSKQMDERRAKDFIEWLKNGGPSSGAPPPSK([γGlu-Palmitoyl])-NH2 (N-terminus assumed; SMILES CCCCCCCCCCCCCCCC(=O)N[C@@H](CCC(=O)NCCCC[C@H](NC(=O)[C@H](CO)NC(=O)[C@@H]1CCCN1C(=O)[C@@H]1CCCN1C(=O)[C@@H]1CCCN1C(=O)[C@H](C)NC(=O)CNC(=O)[C@H](CO)NC(=O)[C@H](CO)NC(=O)[C@@H]1CCCN1C(=O)CNC(=O)CNC(=O)[C@H](CC(N)=O)NC(=O)[C@H](CCCCN)NC(=O)[C@H](CC(C)C)NC(=O)[C@H](Cc1c[nH]c2ccccc12)NC(=O)[C@H](CCC(=O)O)NC(=O)[C@@H](NC(=O)[C@H](Cc1ccccc1)NC(=O)[C@H](CC(=O)O)NC(=O)[C@H](CCCCN)NC(=O)[C@H](C)NC(=O)[C@H](CCCNC(=N)N)NC(=O)[C@H](CCCNC(=N)N)NC(=O)[C@H](CCC(=O)O)NC(=O)[C@H](CC(=O)O)NC(=O)[C@H](CCSC)NC(=O)[C@H](CCC(N)=O)NC(=O)[C@H](CCCCN)NC(=O)[C@H](CO)NC(=O)[C@H](CC(C)C)NC(=O)[C@H](CC(=O)O)NC(=O)[C@H](CO)NC(=O)[C@@H](NC(=O)[C@H](Cc1ccccc1)NC(=O)[C@@H](NC(=O)CNC(=O)[C@H](CCC(N)=O)NC(=O)[C@@H](CO)NC(=O)[C@@H](N)Cc1c[nH]cn1)[C@@H](C)O)[C@@H](C)O)[C@@H](C)CC)C(N)=O)C(=O)O) [SEQ ID NO: (70)] | 17.2 pM | 5 pM |
| H[dS]QGTFTSDLSKQMESRRAQDFIEWLK[Aib]GGPSSGAPPPSK([γGlu-Palmitoyl])-NH2 [SEQ ID NO: (73)] | 21.2 pM | 4.4 pM |
| H[dS]QGTFTSDLSKQMDKRRAQDFIEWLKNGGPSSGAPPPSK([γGlu-Palmitoyl])-NH2 (N-terminus assumed; SMILES CCCCCCCCCCCCCCCC(=O)N[C@@H](CCC(=O)NCCCC[C@H](NC(=O)[C@H](CO)NC(=O)[C@@H]1CCCN1C(=O)[C@@H]1CCCN1C(=O)[C@@H]1CCCN1C(=O)[C@H](C)NC(=O)CNC(=O)[C@H](CO)NC(=O)[C@H](CO)NC(=O)[C@@H]1CCCN1C(=O)CNC(=O)CNC(=O)[C@H](CC(N)=O)NC(=O)[C@H](CCCCN)NC(=O)[C@H](CC(C)C)NC(=O)[C@H](Cc1c[nH]c2ccccc12)NC(=O)[C@H](CCC(=O)O)NC(=O)[C@@H](NC(=O)[C@H](Cc1ccccc1)NC(=O)[C@H](CC(=O)O)NC(=O)[C@H](CCC(N)=O)NC(=O)[C@H](C)NC(=O)[C@H](CCCNC(=N)N)NC(=O)[C@H](CCCNC(=N)N)NC(=O)[C@H](CCCCN)NC(=O)[C@H](CC(=O)O)NC(=O)[C@H](CCSC)NC(=O)[C@H](CCC(N)=O)NC(=O)[C@H](CCCCN)NC(=O)[C@H](CO)NC(=O)[C@H](CC(C)C)NC(=O)[C@H](CC(=O)O)NC(=O)[C@H](CO)NC(=O)[C@@H](NC(=O)[C@H](Cc1ccccc1)NC(=O)[C@@H](NC(=O)CNC(=O)[C@H](CCC(N)=O)NC(=O)[C@@H](CO)NC(=O)[C@@H](N)Cc1c[nH]cn1)[C@@H](C)O)[C@@H](C)O)[C@@H](C)CC)C(N)=O)C(=O)O) [SEQ ID NO: (69)] | 5.9 pM | 7.6 pM |
